From patent US20030199423A1

Tests used:
[1] = target: T1, soluble human ICAM-R (human), P32942; experiment: blocking of biotinylated murine ICR-8.1 binding to ICAM-R; competitor murine ICR-8.1
T1 chain: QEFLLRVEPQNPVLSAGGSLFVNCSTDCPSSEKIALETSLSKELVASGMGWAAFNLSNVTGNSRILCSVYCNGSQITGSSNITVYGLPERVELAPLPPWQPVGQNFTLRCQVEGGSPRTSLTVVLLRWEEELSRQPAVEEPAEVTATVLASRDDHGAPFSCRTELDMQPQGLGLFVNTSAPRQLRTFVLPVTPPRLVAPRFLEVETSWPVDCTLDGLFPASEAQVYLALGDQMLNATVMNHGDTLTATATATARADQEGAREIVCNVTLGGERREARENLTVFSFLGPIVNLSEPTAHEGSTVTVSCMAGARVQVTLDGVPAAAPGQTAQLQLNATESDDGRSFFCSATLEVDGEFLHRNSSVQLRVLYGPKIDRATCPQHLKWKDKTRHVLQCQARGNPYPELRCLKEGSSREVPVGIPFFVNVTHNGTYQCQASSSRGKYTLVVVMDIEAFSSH

[2] = target: T1, soluble human ICAM-R (human), P32942; experiment: ELISA on coated baculovirus soluble ICAM-R
[3] = target: CD18-independent counterreceptor for ICAM-R on Jurkat cells; experiment: inhibition of Jurkat cell adhesion to coated soluble ICAM-R, peptide 1-2 mg/ml

B1: recombinant ICR-8.1 antibody miHuVHI/MuVK (antibody)
chain 1: QIQLVQSGAEVKKPGASVKVSCKASGYTFTDCIILWVRQAPGQGLEWMGKINPYFGTTTYAQKFQGRVTITADTSTSTAYMELSSLRSEDTAVYYCARKEAYPDAMDYWGQGTLVTVSS
chain 2: DAVMTQTPLSLPVSLGDQASISCRSSQSLVHSNGDTYLHWYLQKPGQSPQLLIYKVSNRFSGVPDRFSGSGSGTDFTLKLSRVEAEDLGVYFCSQSTHVPYTFGGGTKLEIK
modifications: not checked
Binder B1 has a fold less well competing than murine ICR-8.1 [1] of 2 fold and a fold improvement in binding over the other recombinant ICR-8.1 antibodies [2] of 2 fold.

Binder GDQRL [ICAM-1 peptide (GDQRL), residues 228-232] has a % Inhibition [3] of 22%.

In the case of NGSQI [ICAM-R domain 1 peptide (NGSQI), residues 72-76], the % Inhibition [3] is reported as 17%.

With DGQST [ICAM-1 peptide (DGQST), residues 70-74] the % Inhibition [3] was 9%.

GDQML [ICAM-R domain 3 peptide (GDQML), residues 230-234] was tested, and the % Inhibition [3] was 36%.

For EKIALET [ICAM-R peptide, residues 32-38], the % Inhibition [3] was 10%.

Work on GERREA [ICAM-R peptide, residues 271-276] yielded a % Inhibition [3] of 11%.
